Biological target: prefusion-stabilized SARS-CoV-2 spike protein (S-clamp) (SARS-CoV-2)
Assay: SEC

Substance: prefusion-stabilized SARS-CoV-2 spike protein (S-clamp)
- stoichiometry N: 3

Source: paper doi:10.1101/2022.01.11.475947
